Results on one substance are retold here after patent US6747136.

In the experiment the target is recombinant conformational HCV E2 antigen (HCV genotype 1a) (hepatitis C virus, HCV1 (genotype 1a)) (UniProt P26664). Put plainly: NOB assay: control Fab pre-mixed with E2 1a, E2 binding to MOLT-4 cells by flow cytometry; 50% reduction titer, Exp. I.
recombinant conformational HCV E2 antigen (HCV genotype 1a) (hepatitis C virus, HCV1 (genotype 1a)), sequence (P26664 383-715): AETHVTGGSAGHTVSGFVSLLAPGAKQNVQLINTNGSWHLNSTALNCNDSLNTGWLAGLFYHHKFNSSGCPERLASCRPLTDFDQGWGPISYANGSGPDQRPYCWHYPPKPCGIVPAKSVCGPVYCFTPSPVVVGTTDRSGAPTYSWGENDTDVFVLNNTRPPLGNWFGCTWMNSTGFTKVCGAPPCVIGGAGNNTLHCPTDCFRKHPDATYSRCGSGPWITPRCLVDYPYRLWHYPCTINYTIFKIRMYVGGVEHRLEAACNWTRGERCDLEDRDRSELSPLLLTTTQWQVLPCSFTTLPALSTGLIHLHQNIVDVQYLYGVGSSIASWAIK

For orientation: IC50 means the concentration that gives 50% inhibition. On to “negative control Fab clone b12 directed to HIV-1 envelope glycoprotein gp120”, for which the IC50 is greater than 10 µg/mL.
